The record followed here is paper doi:10.1101/2025.11.24.690255v1.

B1: β-glucosidase B (BglB) (Paenibacillus polymyxa; N160L) (protein)
chain: MSENTFIFPATFMWGTSTSSYQIEGGTDEGGRTPSIWDTFCQIPGKVIGGDCGDVACDHFHHFKEDVQLMKQLGFLHYRFSVAWPRIMPAAGIINEEGLLFYEHLLDEIELAGLIPMLTLYHWDLPQWIEDEGGWTQRETIQHFKTYASVIMDRFGERILWWNTINEPYCASILGYGTGEHAPGHENWREAFTAAHHILMCHGIASNLHKEKGLTGKIGITLNMEHVDAASERPEDVAAAIRRDGFINRWFAEPLFNGKYPEDMVEWYGTYLNGLDFVQPGDMELIQQPGDFLGINYYTRSIIRSTNDASLLQVEQVHMEEPVTDMGWEIHPESFYKLLTRIEKDFSKGLPILITENGAAMRDELVNGQIEDTGRHGYIEEHLKACHRFIEEGGQLKGYFVWSFLDNFEWAWGYSKRFGIVHINYETQERTPKQSALWFKQMMAKNGF
B2: β-glucosidase B (BglB) (Paenibacillus polymyxa; N160M) (protein)
chain: MSENTFIFPATFMWGTSTSSYQIEGGTDEGGRTPSIWDTFCQIPGKVIGGDCGDVACDHFHHFKEDVQLMKQLGFLHYRFSVAWPRIMPAAGIINEEGLLFYEHLLDEIELAGLIPMLTLYHWDLPQWIEDEGGWTQRETIQHFKTYASVIMDRFGERIMWWNTINEPYCASILGYGTGEHAPGHENWREAFTAAHHILMCHGIASNLHKEKGLTGKIGITLNMEHVDAASERPEDVAAAIRRDGFINRWFAEPLFNGKYPEDMVEWYGTYLNGLDFVQPGDMELIQQPGDFLGINYYTRSIIRSTNDASLLQVEQVHMEEPVTDMGWEIHPESFYKLLTRIEKDFSKGLPILITENGAAMRDELVNGQIEDTGRHGYIEEHLKACHRFIEEGGQLKGYFVWSFLDNFEWAWGYSKRFGIVHINYETQERTPKQSALWFKQMMAKNGF
B3: β-glucosidase B (BglB) (Paenibacillus polymyxa; N160C) (protein)
chain: MSENTFIFPATFMWGTSTSSYQIEGGTDEGGRTPSIWDTFCQIPGKVIGGDCGDVACDHFHHFKEDVQLMKQLGFLHYRFSVAWPRIMPAAGIINEEGLLFYEHLLDEIELAGLIPMLTLYHWDLPQWIEDEGGWTQRETIQHFKTYASVIMDRFGERICWWNTINEPYCASILGYGTGEHAPGHENWREAFTAAHHILMCHGIASNLHKEKGLTGKIGITLNMEHVDAASERPEDVAAAIRRDGFINRWFAEPLFNGKYPEDMVEWYGTYLNGLDFVQPGDMELIQQPGDFLGINYYTRSIIRSTNDASLLQVEQVHMEEPVTDMGWEIHPESFYKLLTRIEKDFSKGLPILITENGAAMRDELVNGQIEDTGRHGYIEEHLKACHRFIEEGGQLKGYFVWSFLDNFEWAWGYSKRFGIVHINYETQERTPKQSALWFKQMMAKNGF
B4: β-glucosidase B (BglB) (Paenibacillus polymyxa; N160S) (protein)
chain: MSENTFIFPATFMWGTSTSSYQIEGGTDEGGRTPSIWDTFCQIPGKVIGGDCGDVACDHFHHFKEDVQLMKQLGFLHYRFSVAWPRIMPAAGIINEEGLLFYEHLLDEIELAGLIPMLTLYHWDLPQWIEDEGGWTQRETIQHFKTYASVIMDRFGERISWWNTINEPYCASILGYGTGEHAPGHENWREAFTAAHHILMCHGIASNLHKEKGLTGKIGITLNMEHVDAASERPEDVAAAIRRDGFINRWFAEPLFNGKYPEDMVEWYGTYLNGLDFVQPGDMELIQQPGDFLGINYYTRSIIRSTNDASLLQVEQVHMEEPVTDMGWEIHPESFYKLLTRIEKDFSKGLPILITENGAAMRDELVNGQIEDTGRHGYIEEHLKACHRFIEEGGQLKGYFVWSFLDNFEWAWGYSKRFGIVHINYETQERTPKQSALWFKQMMAKNGF
B5: β-glucosidase B (BglB) (Paenibacillus polymyxa; N160G) (protein)
chain: MSENTFIFPATFMWGTSTSSYQIEGGTDEGGRTPSIWDTFCQIPGKVIGGDCGDVACDHFHHFKEDVQLMKQLGFLHYRFSVAWPRIMPAAGIINEEGLLFYEHLLDEIELAGLIPMLTLYHWDLPQWIEDEGGWTQRETIQHFKTYASVIMDRFGERIGWWNTINEPYCASILGYGTGEHAPGHENWREAFTAAHHILMCHGIASNLHKEKGLTGKIGITLNMEHVDAASERPEDVAAAIRRDGFINRWFAEPLFNGKYPEDMVEWYGTYLNGLDFVQPGDMELIQQPGDFLGINYYTRSIIRSTNDASLLQVEQVHMEEPVTDMGWEIHPESFYKLLTRIEKDFSKGLPILITENGAAMRDELVNGQIEDTGRHGYIEEHLKACHRFIEEGGQLKGYFVWSFLDNFEWAWGYSKRFGIVHINYETQERTPKQSALWFKQMMAKNGF

Substrate in this data set: O=[N+]([O-])c1ccc(O[C@@H]2O[C@H](CO)[C@@H](O)[C@H](O)[C@H]2O)cc1
The data set is described as follows: purified protein. The following applies: 0-100 mM substrate, 15 min.
What is called Km is the concentration of substrate that gives half-maximal velocity. What is called kcat is the number of substrate molecules converted per active site and unit of time at saturation. On to B1, for which the Km came to 13.8 ± 1.6 mM and the kcat is 3.245 ± 0.127 s⁻¹.
B2: the Km came out at 14.1 ± 1.3 mM and the kcat is 4.162 ± 0.122 s⁻¹.
As for B3, the Km came to 4.3 ± 0.3 mM and the kcat was 9.147 ± 0.157 s⁻¹.
As for B4, the Km is 4.9 ± 0.2 mM and the kcat was determined as 4.527 ± 0.05 s⁻¹.
Consider B5, for which the Km stood at 3.5 ± 0.2 mM and the catalytic constant (kcat) worked out at 9.81 ± 0.137 s⁻¹.
